How the values were obtained:
IgG (coating control) [1] = experiment: ELISA, IgG coated plate, E. coli extract, anti-V5-HRP, TMB
IgG (coating control) [2] = experiment: ELISA, IgG coated plate, E. coli extract (1/2), anti-V5-HRP, TMB
[3] = molecular target: biotinylated-mPD1 (mouse) (UniProt Q02242); experiment: whole cell ELISA, scFv displayed on E. coli Nissle, biotinylated mPD1, streptavidin-HRP, TMB
Biotinylated IgG = experiment: whole cell ELISA, scFv displayed on E. coli Nissle, biotinylated IgG as negative control, streptavidin-HRP, TMB
NK cells = conditions: upon treatment; cited from earlier work
mCD40 = molecular target: T1, mCD40 (Mus musculus, UniProt P27512); experiment: CD40 ELISA binding assay, plate coated with mCD40; conditions: clarified supernatant; for CD40 ELISA signal, coating material IgG / CD40 ELISA signal, coating material PBS: control coating
T1 sequence (P27512 20-289): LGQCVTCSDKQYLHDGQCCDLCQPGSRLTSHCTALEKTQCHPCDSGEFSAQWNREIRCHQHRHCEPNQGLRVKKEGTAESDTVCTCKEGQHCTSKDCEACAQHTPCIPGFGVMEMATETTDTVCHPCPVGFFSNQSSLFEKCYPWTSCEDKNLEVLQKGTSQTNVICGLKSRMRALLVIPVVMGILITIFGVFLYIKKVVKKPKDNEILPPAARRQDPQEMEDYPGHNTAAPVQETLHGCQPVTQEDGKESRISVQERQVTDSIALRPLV
Method: (§1) Cultures were diluted 1:100 in LB and grown shaking (200 rpm) to an optical density of 0.8, at which time the cultures were cooled down to room temperature and anhydrous tetracycline (ATC) was added to cultures at a concentration of 100 ng/mL, to induce expression of mCD40L1 and mCD40L2.
(§2) After 18 hours of induction, cells were spun down, and supernatant was collected. To generate cell free medium, the clarified supernatant was further filtered through a 0.22 micron filter to remove any remaining bacteria and placed on ice.

anti-mCD40L antibody = experiment: CD40 ELISA binding assay, plate coated with anti-mCD40L antibody; conditions: clarified supernatant
Method: as §1, §2

PD1 = molecular target: T2, PD1 (Mus musculus, UniProt Q02242); experiment: ELISA binding assay of bacterial extracts (J43-scFv); conditions: α-V5-HRP
T2 construct: purchased Rndsystems
T2 sequence (Q02242 25-288): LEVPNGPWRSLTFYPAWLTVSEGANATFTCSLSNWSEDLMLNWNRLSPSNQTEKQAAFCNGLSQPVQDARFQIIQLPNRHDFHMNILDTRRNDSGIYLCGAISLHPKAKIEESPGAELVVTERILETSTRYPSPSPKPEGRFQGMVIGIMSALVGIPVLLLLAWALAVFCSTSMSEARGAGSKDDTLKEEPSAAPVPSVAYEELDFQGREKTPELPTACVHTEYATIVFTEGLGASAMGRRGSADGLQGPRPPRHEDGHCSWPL
Method: E. coli comprising either tet-inducible J43-Anti-PD1-scFv-V5 or wild type controls were grown overnight in LB medium. […] Same amount of tetracycline was added to wild type control cultures.

PD1 on mouse EL4 cells = molecular target: T3, PD1 on mouse EL4 cells (Mus musculus, UniProt Q02242); experiment: Flow cytometric analysis of anti-PD1-scFv binding to EL4 cells, PDL1 competition
T3 construct: EL4 are a mouse lymphoma cell line which expresses PD1 on its cell surface; endogenous in cells; host or cells: EL4 (mouse lymphoma)
T3 sequence (Q02242 25-288): T2 sequence (Q02242 25-288)
Method: To determine whether anti-PD1-scFv expressed in E. coli binds to surface PD1 on mouse EL4 cells, flow cytometric analysis was performed using EL4 cells. EL4 are a mouse lymphoma cell line which expresses PD1 on its cell surface.
EL4 cells were grown in Dulbecco's Modified Eagle's Medium (DMEM) with 10% FBS. Cells were spun down, supernatant was aspirated, pellet was resuspended in 1 nil D-PBS, transferred into chilled assay tubes (1×10^6 cells), and washed 2-3 times in D-PBS with 0.5% BSA. Cells were resuspended in PBS with 0.5% BSA, to which the purified scFv-V5 and anti-V5-FITC antibody were added and incubated for 1 hour at room temperature. Negative control left out scFv-V5. Cells were resuspended in 0.5 ml PBS and analyzed on a flow cytometer.
EL4 are a mouse lymphoma cell line which expresses PD1 on its cell surface.
EL4 cells were grown in Dulbecco's Modified Eagle's Medium (DMEM) with 10% FBS and 1% Penicillin-Streptomycin Cells were spun down, supernatant was aspirated, pellet was resuspended in 1 ml D-PBS, transferred into chilled assay tubes (1×10^6 cells), and washed 3 times in D-PBS. Cells were resuspended in D-PBS with 0.5% BSA, to which the purified scFv-V5 and anti-V5-FITC antibody were added and incubated for 1 hour at room temperature. Negative control left out secreted J43-scFv-V5. Cells were then resuspended in 0.5 ml PBS and analyzed on a flow cytometer. Results are shown in (FIG. 64).
Next, a competition assay was conducted to determine whether PDL1 could inhibit the binding of the anti-PD1-scFv secreted by the genetically engineered bacteria from binding to murine PD1. EL4 cells were grown and flow cytometry protocol was conducted essentially as described above except that PDL1 was added at various concentrations ([…]) during the incubation of the secreted anti-PD1-scFv-V5. Rat-IgG was used as a negative control of secreted scFv.

[4] = molecular target: T4, secreted mCD40L1 (47-260) (mouse, UniProt P27548 47-260); experiment: ELISA, mCD40 coated plate
T4 construct: range 47-260; also called Secreted CD40-L1; SYN3366 supernatant
T4 sequence (looked up): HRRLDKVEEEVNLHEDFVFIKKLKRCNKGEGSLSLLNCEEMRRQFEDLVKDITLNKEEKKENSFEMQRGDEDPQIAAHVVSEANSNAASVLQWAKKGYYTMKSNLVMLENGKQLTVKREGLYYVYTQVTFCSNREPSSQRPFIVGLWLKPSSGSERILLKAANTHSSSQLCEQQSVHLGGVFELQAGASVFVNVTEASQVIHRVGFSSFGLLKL

[5] = molecular target: T5, recombinant SIRPα (Rndsystems) (mouse, UniProt P97797 32-373); experiment: flow cytometry competition on CT26 cells
T5 construct: also called recombinant mSIRPα
T5 sequence (looked up): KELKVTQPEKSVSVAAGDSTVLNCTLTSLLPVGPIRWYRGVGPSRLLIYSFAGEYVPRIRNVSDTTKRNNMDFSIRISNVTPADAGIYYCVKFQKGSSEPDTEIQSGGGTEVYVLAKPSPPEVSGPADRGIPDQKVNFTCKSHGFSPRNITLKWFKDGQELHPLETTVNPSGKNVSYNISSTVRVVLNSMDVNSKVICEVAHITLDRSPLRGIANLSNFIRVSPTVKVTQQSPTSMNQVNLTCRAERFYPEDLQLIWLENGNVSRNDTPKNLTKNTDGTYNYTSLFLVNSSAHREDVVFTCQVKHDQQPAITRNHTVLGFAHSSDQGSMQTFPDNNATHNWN

IgG (coating control) [6] = experiment: ELISA, IgG coated plate, bacterial supernatant
[7] = molecular target: T6, mouseCD47 (recombinant) (mouse) (UniProt Q61735); experiment: ELISA, mCD47 coated plate, bacterial supernatant
T6 sequence (looked up): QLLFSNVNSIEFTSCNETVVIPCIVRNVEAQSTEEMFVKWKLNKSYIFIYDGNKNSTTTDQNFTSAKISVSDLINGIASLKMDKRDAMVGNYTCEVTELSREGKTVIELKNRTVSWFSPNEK

Molecule: J43-Anti-PD1-scFv-V5
- ELISA signal at 450 nm (IgG (coating control) [1]): 0.13
- ELISA signal at 450 nm (IgG (coating control) [2]): 0.11

Molecule: LppOmpA-FLAG-J43scFv-V5-HIS displayed on E. coli Nissle SYN2798
- OD450 [3]: 0.421
- OD450 (Biotinylated IgG): 0.133

Molecule: recombinant human IL-15: recombinant human IL-15 of a first-in-human clinical trial
- expansion of NK cells (NK cells): 10 fold
- proliferation of γδT cells and CD8+ T cells (NK cells): significantly increased

B1: Secreted CD40-L2: mCD40L2 (112-260), soluble form of mCD40L, secreted by SYN3367 (protein)
chain: MQRGDEDPQIAAHVVSEANSNAASVLQWAKKGYYTMKSNLVMLENGKQLTVKREGLYYVYTQVTFCSNREPSSQRPFIVGLWLKPSSGSERILLKAANTHSSSQLCEQQSVHLGGVFELQAGASVFVNVTEASQVIHRVGFSSFGLLKL
modifications: left off: small tags and cut ends
- CD40 ELISA signal, coating material mCD40 (mCD40): 0.639
- CD40 ELISA signal, coating material IgG (mCD40): 0.052
- CD40 ELISA signal, coating material PBS (mCD40): 0.05
- CD40 ELISA signal, coating material Anti-mCD40L (anti-mCD40L antibody): 0.825

B2: J43-scFv-V5: anti-PD1 single-chain variable fragment based on J43 monoclonal antibody, V5 tagged, expressed in E. coli (protein)
scFv: MQLEVRLLESGGGLVKPEGSLKLSCVASGFTFSDYFMSWVRQAPGKGLEWVAHIYTKSYNYATYYSGSVKGRFTISRDDSRSMVYLQMNNLRTEDTATYYCTRDGSGYPSLDFWGQGTQVTVSSGGGGSGGGGSGGGGSYELTQPPSASVNVGETVKITCSGDQLPKYFADWFHQRSDQTILQVIYDDNKRPSGIPERISGSSSGTTATLTIRDVRAEDEGDYYCFSGYVDSDSKLYVFGSGTQLTVLGKGELNSKLEGKPIPNPLLGLDSTRTGHHHHHH
- Signal intensity at 450 nm, IgG coating (PD1; bacterial extract (1/2)): 0.11
- Signal intensity at 450 nm, PBS coating (PD1; bacterial extract (1/2)): 0.10
- Signal intensity at 450 nm, mPD1 coating (PD1; bacterial extract (1/2)): 0.90
- Signal intensity at 450 nm, IgG coating (PD1; bacterial extract): 0.13
- Signal intensity at 450 nm, PBS coating (PD1; bacterial extract): 0.11
- Signal intensity at 450 nm, mPD1 coating (PD1; bacterial extract): 1.41
- PDL1 competition against binding to mPD1 on EL4 cells (PD1 on mouse EL4 cells; PDL1 added at various concentrations): PDL1 competed in a dose dependent manner
- binding to surface PD1 on EL4 cells (flow cytometry) (PD1 on mouse EL4 cells; purified scFv, anti-V5-FITC): population shift is observed
- staining of EL4 cells with different amounts of secreted scFv (PD1 on mouse EL4 cells; secreted scFv, increasing amounts): dose-dependent staining of the EL4 cells was observed
- binding to PD1 on EL4 cells (flow cytometry) (PD1 on mouse EL4 cells; secreted scFv, anti-V5-FITC): population shift is observed

B3: mCD40 (receptor, mouse, UniProt P27512 24-193, looked up)
chain: VTCSDKQYLHDGQCCDLCQPGSRLTSHCTALEKTQCHPCDSGEFSAQWNREIRCHQHRHCEPNQGLRVKKEGTAESDTVCTCKEGQHCTSKDCEACAQHTPCIPGFGVMEMATETTDTVCHPCPVGFFSNQSSLFEKCYPWTSCEDKNLEVLQKGTSQTNVICGLKSRMR
- binding result [4]: binds

B4: Secreted CD40-L1: mCD40L1 (47-260), extracellular portion of mCD40L, secreted by SYN3366 (protein)
chain: T4 sequence (looked up)
modifications: left off: small tags and cut ends
- CD40 ELISA signal, coating material mCD40 (mCD40): 0.231
- CD40 ELISA signal, coating material IgG (mCD40): 0.052
- CD40 ELISA signal, coating material PBS (mCD40): 0.049
- CD40 ELISA signal, coating material Anti-mCD40L (anti-mCD40L antibody): 0.394

B5: CD47 on mouse CT26 cells (receptor, UniProt Q61735 19-303, looked up)
chain: QLLFSNVNSIEFTSCNETVVIPCIVRNVEAQSTEEMFVKWKLNKSYIFIYDGNKNSTTTDQNFTSAKISVSDLINGIASLKMDKRDAMVGNYTCEVTELSREGKTVIELKNRTVSWFSPNEKILIVIFPILAILLFWGKFGILTLKYKSSHTNKRIILLLVAGLVLTVIVVVGAILLIPGEKPVKNASGLGLIVISTGILILLQYNVFMTAFGMTSFTIAILITQVLGYVLALVGLCLCIMACEPVHGPLLISGLGIIALAELLGLVYMKFVASNQRTIQPPRNR
notes: whole, on cells; also called murine CD47 on CT26 cells
- binding result [5]: binds

B6: secreted anti-mCD47 scFv (scFv, from a related filing)
scFv: QVKLLQSGAALVKPGASVKMSCQASGYSFTDYWVTWVKQSHGQSLEWIGEIYPSNTVTNFNDNFKGKATLTVDKSTSTAYMELSRLTSEDSAIYYCTRIGNSGYRVGWFIYWGQGTLVTVLSGGGGSGGGGSGGGGSDTVLTQSPALAVSPGERVTISCKASESVSSHMHWYQQKPGQQPKLLIYKASNLASGVPARFSGSGSGTDFTLTIDPVEADDTATYFCQQGWNGPFTFGAGTRLELKRADAAGSGELGGSGKPIPNPLLGLDSTGSGHHHHHH
- ELISA signal (IgG (coating control) [6]): 0.067
- ELISA signal [7]: 0.527
